The values below come from patent publication US20240002477A1 (UNIVERSITY OF CHICAGO, published 2024).

B1: S144-67 (antibody, V domains shown)
VH: EVQLVQSGAEVKKPGESLKISCKGSGYSFTTYWIAWVRQMPGKGLEWVGIIYPDDSDTRYSPSFQGQVTISADKSIGTAYLQWSSLKASDTAMYYCARGQYYDFWSGAGGVDVWGQGTTVTVSS
VL: QSVLTQPPSVSGAPGQRVTISCTGSRSNIGAGYDVQWYQQVPGTAPKLLISGNSNRPSGVPDRFSGSKSGTSASLAITGLQAEDEADYYCQSYDSSLSGLRVFGGGTKLTVL
notes: recombinant human IgG1
B2: S564-152 (antibody, V domains shown)
VH: QVQLVESGGGVVQPGRSLRLSCAASGFTFSYYGMHWVRQAPGKGLEWVAVIWYDGSNKHYADSVKGRFTISRDNSKNTLYLQMNSLRAEDTAVYYCAKNAAPYCSGGSCYGTYFDYWGQGTLVTVSS
VL: DIQMTQSPSSLSASVGDRVTITCQASQDINNYLNWYQQKPGKAPKLLIYDASNLETGVPSRFSGSGSGTDFTFTISSLQPEDIATYYCQQYDNVPPHTFGQGTKLEIK
notes: recombinant human IgG1
B3: S20-74 (antibody, V domains shown)
VH: QVQLQESGPGLVKPSETLSLTCTVSGGSISSHYWSWIRQPPGKGLEQIGYMYYSGSTNYNPSLKSRVIISVDTSKNQFSLKLSSVTAADTAVYYCAGRDQLLYGADGFDIWGQGTMVTVSS
VL: QSALTQPPSASGSPGQSVTISCTGTSSDVGGYNYVSWYQQHPGKAPKLMIYEVSKRPSGVPDRYSGSKSGNTASLTVSGLQAEDEADYYCSSYAGSSNHVIFGGGTKLTVL
notes: recombinant human IgG1
B4: S564-138 (antibody, V domains shown)
VH: QVLLVQSGAEVKKPGASVKVSCKASGYTFTGYYLHWVRQAPGQGLEWMGWINPISGGTNYAQNFQDRVTMTRDTSIITAYMELSRLRSDDTAVYYCARLAYYYDSSAYRGAFDIWGQGTMVTVSS
VL: QSALTQPASVSGSPGQSITISCTGTSSDVGGYNYVSWYQQHPGKAPKLMIYEVSNRPSGVSDRFSGSKSGNTASLTISGLQAEDEADYYCSSYTSSSTYVFGTGTKVTVL
notes: recombinant human IgG1
B5: S24-1224 (antibody, V domains shown)
VH: QVQLVQSGAEVKKPGASVRVSCKASGYTFTSYYIYWVRQAPGQGLEWMGVINPSGGSTSYAQKFQGRVTLTRDTSTSTVYMDLSSLRSEDTAVYYCARDPIMWEVVTRGRGNWFDPWGQGTLVTVSS
VL: QSVLTQPPSVSGAPGQRVTIPCTGSSFNIGAGYDVHWYQQLPGTAPKLLIFGNSNRPSGVPDRFSGSRSGTSASLAITGLQAEDEADYYCQSYDSSLSGVVFGGGTTLTVL
notes: recombinant human IgG1
B6: S144-69 (antibody, V domains shown)
VH: EVQLVQSGAEVKKPGESLKISCKGSGYSFTSYWIGWVRQMPGKGLEWMGIIYPGDSDTRYSPSFQGQVTISADKSITTAYLQWSSLKASDTAMYYCARTQTTNWFDSWGQGTLVTVSS
VL: DIQMTQSPSTLSVSVGDRVTITCRASQSVSSWLAWYQQKPGKAPKLLIYDASSLESGVPSRFSGSGSGTEFTLTISSLQPDDFATYYCQQYNSFYTFGQGTKLEIK
notes: recombinant human IgG1
B7: S144-1079 (antibody, V domains shown)
VH: QVQLVQSGAEVKKPGSSVKVSCKASGDTFGSYSITWVRQAPGQGLEWMGRIIPVLGIANYAQKFQGRVTITADKSTSTAYMELSSLRSEDTAVYYCAGGGCSGGNCYSWYNWFDPWGQGSLVTVSS
VL: EIVLTQSPGTLSLSPGERATLSCRASQSVSSNYLAWYQQKPGQAPRLLIYGASSRATGIPERFSGSGSGTDFTLTISRLEPEDFAVYYCQQYGRSPYTFGQGTKLEIK
notes: recombinant human IgG1
B8: S144-509 (antibody, V domains shown)
VH: EVQLVQSGAEVKKPGESLKISCKGSAYTFTTYWIGWVRQMPGKGLEWMGIIYPGDSDTRYSPSFQGQVTISADKSISTAYLQWSSLKASDTAMYYCARLLLVAGPFDYWGQGTLVTVSS
VL: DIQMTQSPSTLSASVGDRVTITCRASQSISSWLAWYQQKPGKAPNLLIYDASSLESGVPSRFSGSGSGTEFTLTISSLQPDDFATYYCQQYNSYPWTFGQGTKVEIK
notes: recombinant human IgG1
B9: S564-14 (antibody, V domains shown)
VH: EVQLVESGGGLVQPGGSLRLSCAASGLTFSSYWMSWARQAPGKGLEWVANIKKDGSEKYYVDSVKGRFTISRDNAKNSLYLQMNSLRVEDTAVYYCASEPPHYGGNSGAEYFQHWGQGTLVTVSS
VL: SYVLTQPPSVSVAPGKTARITCGGNNIGSKSVHWYQQRPGQAPVLVIYYDSDRPSGIPERFSGSNSGNTATLTISRVEAGDEADYYCQVWDSSSDHHYVFGTGTKVTVL
notes: recombinant human IgG1
B10: S144-466 (antibody, V domains shown)
VH: EVQLVQSGAEVKKPGESLKISCKGSGYRFTRYWIGWVRQMPGKGLEWMGIIYLGDSETRYSPSFQGQVTISADNSISTAYLQWSSLKASDTAMYYCARSSNWNYGDYWGQGTLVTVSS
VL: DIQMTQSPSTLSASVGDRVTITCRASQSITSWLAWYQQKSGKAPKLLIYDASSLESGVPSRFSGSGSGTEFTLTISSLQPDDFATYYCQQYNSYPWTFGQGTKVEIK
notes: recombinant human IgG1
B11: S144-1406 (antibody, V domains shown)
VH: QVQLVQSGAEVKKPGASVKVSCKASGYTFTTYAMHWVRQAPGQRLEWMGWINAGNGNTKYSQNFQGRVTITRDTSASTAYMELSSLRSEDTAVYYCASLVGGDSSSWYDYMDVWGKGTTVTVSS
VL: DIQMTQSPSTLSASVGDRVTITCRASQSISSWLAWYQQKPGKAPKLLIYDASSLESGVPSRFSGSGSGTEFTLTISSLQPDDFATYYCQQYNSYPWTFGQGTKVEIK
notes: recombinant human IgG1
B12: S24-1384 (antibody, V domains shown)
VH: EVQLVESGGGLVQPGGSLRLSCAVSGFTFSSYSMNWVRQAPGKGLEWVSYISSSSSIIYYADSVKGRFTISRDNAKNSLYLQMNSLRAEDTAVYYCARDFLDYSRSYSYGMDVWGQGTTVTVSS
VL: SYVLTQPPSVSVAPGQTARITCGGDNIGSKNVHWYQQKPGQAPVLVVFDDSDRPSGIPERFSGSNSGNTATLTISRVEAGDEADYYCQVWDSSSDHYVVFGGGTKLTVL
B13: S24-636 (antibody, V domains shown)
VH: EVQLVESGGGLVQPGGSLRLSCAASGFTLSSYWMSWVRQAPGKGLEWVANIKQDGSEKYYVDSVKGRFTISRDNAKNSLYLQMNSLRAEDTAVYYCARDLTATWFDPWGQGTLVTVSS
VL: QTVVTQEPSFSVSPGGTVTLTCGLSSGSVSTSYYPSWYQQTPGQAPRTLIYSTNKRSSGVPDRFSGSILGNKAALTITGAQADDESDYYCVLYMGSGMSVFGGGTKLTVL
B14: S24-1378 (antibody, V domains shown)
VH: EVQLVESGGGLVQPGGSLRLSCAASGFTVSSNYMSWVRQAPGKGLEWVSVIYSGGSTYYADSVKGRFTISRHNSKNTLYLQMNSLRAEDTAVYYCAREGYCTNGVCYRHAFDIWGQGTMVTVSS
VL: B13 VL with K55T, M98I
notes: recombinant human IgG1
B15: S564-287 (antibody, V domains shown)
VH: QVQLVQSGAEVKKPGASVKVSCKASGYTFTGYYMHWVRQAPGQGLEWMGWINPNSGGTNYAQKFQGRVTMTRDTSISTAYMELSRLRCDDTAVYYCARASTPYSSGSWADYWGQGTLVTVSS
VL: B4 VL with E52D, D62N, T94A, Y99W, T103G, V107L
notes: recombinant human IgG1
B16: S144-741 (antibody, V domains shown)
VH: QVHLVQSGAEVKKPGASVKVSCKASGYTFTGYYMNWVRQAPGQGLEWMGRINPNSGGTNYAQKFQGRVTMTRDTSISTAYMELSRLRSDDAAVYYCARAERYSSSWYNLYYWGQGTLVTVSS
VL: not shown
notes: recombinant human IgG1
B17: S144-1299 (antibody, V domains shown)
VH: QVQLQESGPGLVKPSETLSLTCTVSGGSISSYYWSWIRQPPGKGLEWIGYINYRGITNYNPSLKSRVTISVDMSKNQFSLKLSSVTAADTAVYSCARLAVASRGTVDYWGQGTLVTVSS
VL: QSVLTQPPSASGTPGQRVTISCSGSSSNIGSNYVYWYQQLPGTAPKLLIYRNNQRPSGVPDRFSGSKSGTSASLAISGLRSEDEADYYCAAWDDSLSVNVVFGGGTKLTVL
notes: recombinant human IgG1
B18: S144-843 (antibody, V domains shown)
VH: QVQLVESGGGVVQPGGSVRLSCAASGFDFTNNGMYWVRQAPGKGLEWVAFIRYDGNKQDYADSVKGRFTISRDNSKNTLYLQMSSLRPEDTAVYYCAKGVYTENYGWGQGTLVTVSS
VL: EIVLTQSPGTLSLSPGERATLSCRASQTVTSRYLAWYQQKPGQAPRLLIYGASTRATGIPDRFSGSGSGTDFTLTISRLEPEDFAVYYCQQYGNSPPYTFGQGTKLEIK
notes: recombinant human IgG1
B19: S144-175 (antibody, V domains shown)
VH: QVQLVQSGAEVKKPGASVKVSCKASGYTFTGYYMHWVRQAPGQGLEWMGRINPNSGGTNFAQRFQGRVSMTRDTSISTAYMELSSLRSDDTAVYYCARGAKFEHLPFDIWGQGTMVTVSS
VL: QSMLTQPPSASGTPGQRVTISCSGSSSNIGSNYVYWYQQLPGTAPKLLIYRNNQRPSGVPDRFSGSKSGTSASLAISGLRSEDEADYYCAAWDDRRWVFGGGTKLTVL
notes: recombinant human IgG1
B20: S144-588 (antibody, V domains shown)
VH: QLQLQESGPGLVKPSETLSLTCTVSGGSISSSSYYWGWIRQPPGKGLEWIGSIYYSGSTYYNPSLKSRFTISVDTSKNQFSLKLSSVTAADTAVYYCAAYQRKLGYCRGNSCFSCFDPWGQGTLVTVSS
VL: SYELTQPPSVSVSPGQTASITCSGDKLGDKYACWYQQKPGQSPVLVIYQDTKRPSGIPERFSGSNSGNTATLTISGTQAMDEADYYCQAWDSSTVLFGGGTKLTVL
notes: recombinant human IgG1
B21: S144-208 (antibody, V domains shown)
VH: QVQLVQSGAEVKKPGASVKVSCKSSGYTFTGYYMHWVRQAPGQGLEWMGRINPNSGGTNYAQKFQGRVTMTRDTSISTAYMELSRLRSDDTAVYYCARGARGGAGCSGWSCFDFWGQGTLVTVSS
VL: QSALTQPRSVSGSPGQSVTISCTGTSSDVGGYKYVSWYQQHPGKAPKLMIYDVSKRPSGVPDRFSGSKSGNTASLTISGLQAEDEGDYYCCSYAGTYSLVFGGGTKVTV
notes: recombinant human IgG1
B22: S24-1345 (antibody, V domains shown)
VH: QLQLQESGPGLVKPSETLSLTCTVSGGSISSSSYYWGWIRQPPGKGLEWIGSIYYSGSTYYNPSLKSRVTISVDTSKNQFSLKLSSVTAADTAVYYCARRIRRPTSEVVITYVFDYWGQGTLVTVSS
VL: AIQLTQSPSSLSASVGDRVTITCRASQGISSALAWYQQKPGKAPKLLIYDASSLESGVPSRFSGSGSGTDFTLTISSLQPEDFATYYCQQFNSYLTFGGGTKVEIK
B23: S24-278 (antibody, V domains shown)
VH: QVQLVQSGAEVKKPGASVKVSCKASGYTFTGYYMHWVRQAPGQGLEWMGWINPNSGDTNYAQKFQGWVTMTRDTSLSTAYMELSRLKSDDTAVYYCARVGVGEYSGRHYYYYGMDVWGQGTTVTVSS
VL: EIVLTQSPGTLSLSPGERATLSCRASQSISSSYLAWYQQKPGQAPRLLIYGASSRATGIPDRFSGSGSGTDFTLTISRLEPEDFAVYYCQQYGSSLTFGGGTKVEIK
notes: recombinant human IgG1

Substitutions are numbered along the chain they refer to.

For one test, the target named is SARS-CoV-2 spike receptor-binding domain (SARS-CoV-2, UniProt P0DTC2 319-541). As to the kind of experiment: mAb table, Specificity column (recombinant IgG1; ELISA). In general terms: An ELISA detects its analyte on a solid surface through an enzyme-linked reagent.
With B1, the binding result was “binds”. On the same count and under the same terms, then B2, with “binds”.

Regarding B3, the binding result is “binds”. The same measure, in the same setting: the result for B4 reads “binds”; that for B5, “binds”; that for B6, “binds”.

For the molecule B7, the binding result is on record as “binds”.

Take B8: the binding result was “binds”.

As to B9, the binding result is “binds”. As for B10, the binding result is recorded as “binds”. Regarding B11, the binding result is listed as “binds”. On the same count and under the same terms, then B12, with “binds”.

The target in another test is T1, SARS-CoV-2 ORF8 protein (SARS-CoV-2, UniProt P0DTC8 16-121).
T1 construct: domain: Ig-like domains; also called open reading frame 8
T1 sequence (P0DTC8 16-121, tags left off): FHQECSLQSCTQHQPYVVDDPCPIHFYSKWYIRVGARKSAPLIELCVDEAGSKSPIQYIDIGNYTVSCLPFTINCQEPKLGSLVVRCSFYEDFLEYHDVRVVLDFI
The description is as above.
For B13, the binding result is listed as “binds”.

Regarding B14, the binding result was “binds”. Still for that read-out and setting: then B15, with “binds”; and B16, with “binds”; and B17, with “binds”. On to B18, for which the binding result is recorded as “binds”. Same read-out and setting: then B19, with “binds”; and B20, with “binds”. Same read-out and setting: the result for B21 reads “binds”; that for B22, “binds”; that for B23, “binds”.
